In US20210033615:

Target: T1, F-box protein 28 (FBXO28)
T1 chain: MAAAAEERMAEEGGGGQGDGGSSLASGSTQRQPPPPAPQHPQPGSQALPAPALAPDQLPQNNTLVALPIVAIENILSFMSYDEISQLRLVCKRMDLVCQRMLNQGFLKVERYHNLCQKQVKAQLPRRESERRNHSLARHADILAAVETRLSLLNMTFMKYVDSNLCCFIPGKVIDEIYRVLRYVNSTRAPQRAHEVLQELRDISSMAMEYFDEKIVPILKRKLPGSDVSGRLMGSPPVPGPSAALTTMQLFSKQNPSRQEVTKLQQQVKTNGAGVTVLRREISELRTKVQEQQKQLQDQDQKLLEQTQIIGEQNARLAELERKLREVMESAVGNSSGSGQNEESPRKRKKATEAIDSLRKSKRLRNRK

B1: 6-phosphofructo-2-kinase/fructose-2,6-biphosphatase 4 (PFKFB4) (protein)
chain: MASPRELTQNPLKKIWMPYSNGRPALHACQRGVCMTNCPTLIVMVGLPARGKTYISKKLTRYLNWIGVPTREFNVGQYRRDVVKTYKSFEFFLPDNEEGLKIRKQCALAALRDVRRFLSEEGGHVAVFDATNTTRERRATIFNFGEQNGYKTFFVESICVDPEVIAANIVQVKLGSPDYVNRDSDEATEDFMRRIECYENSYESLDEDLDRDLSYIKIMDVGQSYVVNRVADHIQSRIVYYLMNIHVTPRSIYLCRHGESELNLKGRIGGDPGLSPRGREFAKSLAQFISDQNIKDLKVWTSQMKRTIQTAEALGVPYEQWKVLNEIDAGVCEEMTYEEIQDNYPLEFALRDQDKYRYRYPKGESYEDLVQRLEPVIMELERQENVLVICHQAVMRCLLAYFLDKAAEQLPYLKCPLHTVLKLTPVAYGCKVESIFLNVAAVNTHRDRPQNVDISRPPEEALVTVPAHQ
HIF1a protein level (Western blot) after knockdown in GSCs: silencing of both FBXO28 and PFKFB4 in the GSCs rescued the level of HIF1a | ubiquitylation of HIF1a (ubiquitin immunoblot on immunoprecipitated HIF1a upon MG132 treatment): the ubiquitylation of HIF1a is decreased in cells overexpressing PFKFB4
